Data: IntAct's records for PubMed 23104059

B1: Vesicle-associated membrane protein 7 (Mus musculus), P70280 (parent)
chain: MAILFAVVARGTTILAKHAWCGGNFLEVTEQILAKIPSENNKLTYSHGNYLFHYICQDRIVYLCITDDDFERSRAFSFLNEVKKRFQTTYGSRAQTALPYAMNSEFSSVLAAQLKHHSENKSLDKVMETQAQVDELKGIMVRNIDLVAQRGERLELLIDKTENLVDSSVTFKTTSRNLARAMCMKNIKLTIIIIIVSIVFIYIIVSLLCGGFTWPNCVKK

Variants of: B1
Conditions: with anr27_human ANKRD27, Q96NW4
Sequence of anr27_human ANKRD27, Q96NW4 (Q96NW4 whole entry): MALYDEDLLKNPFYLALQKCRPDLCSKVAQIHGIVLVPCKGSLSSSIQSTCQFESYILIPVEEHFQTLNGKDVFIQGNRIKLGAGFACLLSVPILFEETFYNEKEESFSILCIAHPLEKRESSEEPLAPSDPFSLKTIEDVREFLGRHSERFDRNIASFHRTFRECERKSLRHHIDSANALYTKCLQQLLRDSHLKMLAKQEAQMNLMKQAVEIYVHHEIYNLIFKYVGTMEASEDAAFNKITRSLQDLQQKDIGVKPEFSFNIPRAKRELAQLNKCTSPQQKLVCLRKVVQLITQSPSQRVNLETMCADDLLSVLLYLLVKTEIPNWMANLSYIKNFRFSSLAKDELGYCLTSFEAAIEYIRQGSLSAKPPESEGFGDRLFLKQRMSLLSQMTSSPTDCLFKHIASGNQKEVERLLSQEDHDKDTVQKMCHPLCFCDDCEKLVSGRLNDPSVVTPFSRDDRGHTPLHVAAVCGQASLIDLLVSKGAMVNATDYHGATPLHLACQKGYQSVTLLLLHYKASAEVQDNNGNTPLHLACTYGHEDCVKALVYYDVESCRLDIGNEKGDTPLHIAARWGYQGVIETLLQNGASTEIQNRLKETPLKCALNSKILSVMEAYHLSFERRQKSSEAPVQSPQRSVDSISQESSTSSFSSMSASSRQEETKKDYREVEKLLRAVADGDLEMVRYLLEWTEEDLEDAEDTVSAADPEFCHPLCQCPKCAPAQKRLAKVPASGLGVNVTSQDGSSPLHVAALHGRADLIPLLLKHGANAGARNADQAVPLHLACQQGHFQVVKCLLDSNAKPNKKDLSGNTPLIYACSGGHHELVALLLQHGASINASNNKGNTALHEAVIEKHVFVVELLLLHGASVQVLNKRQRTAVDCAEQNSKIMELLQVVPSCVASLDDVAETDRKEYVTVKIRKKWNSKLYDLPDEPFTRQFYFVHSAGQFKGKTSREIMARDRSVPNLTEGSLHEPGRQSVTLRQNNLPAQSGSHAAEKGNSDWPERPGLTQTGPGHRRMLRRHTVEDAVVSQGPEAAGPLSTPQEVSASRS

effect of a mutation on the interaction | Variant
disrupting interaction strength | MAILFAVVARGTTILAKHAWCGGNFLEVTEQILAKIPSENNKLTYSHGNYLFHYICQDRIVYLCITDDDFEASRAFSFLNEVKKRFQTTYGSRAQTALPYAMNSEFSSVLAAQLKHHSENKSLDKVMETQAQVDELKGIMVRNIDLVAQRGERLELLIDKTENLVDSSVTFKTTSRNLARAMCMKNIKLTIIIIIVSIVFIYIIVSLLCGGFTWPNCVKK [R72A]
disrupting interaction strength | MAILFAVVARGTTILAKHAWCGGNFLEVTEQILAKIPSENNKLTYSHGNYLFHYICQDRIVYLCITDDAFFRDRAFSFLNEVKKRFQTTYGSRAQTALPYAMNSEFSSVLAAQLKHHSENKSLDKVMETQAQVDELKGIMVRNIDLVAQRGERLELLIDKTENLVDSSVTFKTTSRNLARAMCMKNIKLTIIIIIVSIVFIYIIVSLLCGGFTWPNCVKK [D69A;E71F;S73D]
